According to patent publication US20140274901A1, “PROANP COMPOSITIONS AND METHODS FOR TREATING ACUTE HEART FAILURE” (Mayo Foundation for Medical Education and Research, priority 2013, published 2014):
Where two headings read alike, the source gives them in different places. Blank lines part the entries; values can stand above or below the molecule they belong to.

Legend:
[1] = in vivo; details: dog, iv, 667 pmol/kg
Description: (§3) Blood samples were obtained from aorta and renal vein and urine is obtained before and 2.5, 5, 10, 15, 30, 60, 120, and 180 min after injection. […] These doses were similar to doses of carperitide/nesiritide in clinical use.
(§4) Canine ANP1-28 and NT-proANP concentrations are determined by specific immunoassays as described elsewhere (Ichiki et al., Clin Chem, 2011, 57:40-47; Ichiki et al., 2012, supra; Chen et al., J Am Coll Cardiol, 2000, 35:240A; and Chen et al., Am J Physiol Regul Integr Comp Physiol, 2005, 288:R1093-1097).
(§5) The in vivo effects of canine proANP, ANP1-28, and BNP1-32 were examined in normal canines (FIG. 6).

[2] = test system: cGMP; test: Plasma and urinary cGMP after bolus intravenous injection in normal canines; format: in vivo, canine; details: for PcGMP AUC / PcGMP Cmax: plasma cGMP; for PcGMP AUC / PcGMP Cmax / UcGMP AUC / UcGMP Cmax: intravenous bolus 667 pmol/kg; for UcGMP AUC / UcGMP Cmax: urinary cGMP excretion
Description: (§1) The samples were ether extracted four times in 4 volumes of ether, dried, and reconstituted in 300 ul cGMP assay buffer, and the cGMP levels were measured using a competitive RIA cGMP kit (Perkin-Elmer, Boston, Mass.).

[3] = Hemodynamic and renal actions after bolus intravenous injection in normal canines; format: in vivo, canine
Description: Blood samples were obtained from aorta and renal vein and urine is obtained before and 2.5, 5, 10, 15, 30, 60, 120, and 180 min after injection.
as §5

[4] = Pharmacokinetic analysis of NP immunoreactivity after bolus intravenous injection in normal canines
Description: as §3, §4, §5

[5] = target: T1, GC-A (Homo sapiens, UniProt P16066); test: cGMP production in HEK293 cells overexpressing GC-A; format: cell-based
T1 construct: expressed in transfected cells; host or cells: HEK293
T1 sequence (P16066 33-1061): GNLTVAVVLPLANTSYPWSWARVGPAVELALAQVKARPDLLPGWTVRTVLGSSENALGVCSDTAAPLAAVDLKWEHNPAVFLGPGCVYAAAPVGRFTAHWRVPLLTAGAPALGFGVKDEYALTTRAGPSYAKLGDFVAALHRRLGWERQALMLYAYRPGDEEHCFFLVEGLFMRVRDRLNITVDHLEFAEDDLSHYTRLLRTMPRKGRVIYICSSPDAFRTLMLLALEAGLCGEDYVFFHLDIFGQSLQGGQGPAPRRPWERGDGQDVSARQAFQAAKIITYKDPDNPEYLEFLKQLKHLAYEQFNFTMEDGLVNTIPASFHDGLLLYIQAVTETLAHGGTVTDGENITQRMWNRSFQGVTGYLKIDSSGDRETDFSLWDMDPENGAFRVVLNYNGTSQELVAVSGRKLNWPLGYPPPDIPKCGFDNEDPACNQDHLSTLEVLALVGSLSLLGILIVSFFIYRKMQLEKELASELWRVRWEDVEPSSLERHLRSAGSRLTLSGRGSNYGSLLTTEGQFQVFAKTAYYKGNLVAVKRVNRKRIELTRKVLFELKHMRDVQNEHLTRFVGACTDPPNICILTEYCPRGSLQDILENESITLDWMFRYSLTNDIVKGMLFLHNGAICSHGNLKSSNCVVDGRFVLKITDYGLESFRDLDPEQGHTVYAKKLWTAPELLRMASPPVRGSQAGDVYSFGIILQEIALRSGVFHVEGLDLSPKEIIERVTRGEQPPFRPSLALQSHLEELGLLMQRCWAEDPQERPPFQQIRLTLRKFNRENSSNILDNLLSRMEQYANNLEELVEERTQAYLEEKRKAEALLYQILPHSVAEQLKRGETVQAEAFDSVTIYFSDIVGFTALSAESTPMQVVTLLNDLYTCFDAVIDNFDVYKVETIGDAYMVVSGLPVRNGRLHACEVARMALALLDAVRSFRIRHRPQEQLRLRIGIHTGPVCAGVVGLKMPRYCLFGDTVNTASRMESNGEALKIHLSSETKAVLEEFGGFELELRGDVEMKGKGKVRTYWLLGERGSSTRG
Excerpt: (§2) FIGS. 5A-5D depict proANP effects in vitro. FIG. 5A is a pair of graphs plotting cGMP production in GC-A or GC-B overexpressing HEK293 cells treated with proANP, proBNP, or mature ANP or BNP, as indicated. *p<0.05 vs. non-treated cells. FIG. 5B is a pair of graphs plotting cGMP production in GC-A or GC-B overexpressing HEK293 cells treated with proANP (10^−8 M) in serum or PBS, as indicated. *p<0.05 vs. non-treated cells. †p<0.05 vs. PBS-treated proANP. FIG. 5C is a series of photographs showing immunocytochemistry for collagen type I (Col I), GC-A, and corin in cardiac fibroblasts (CFs). NHS served as a negative control. Magnification is 100×. FIG. 5D is a graph plotting the time course of cGMP production in CFs treated with ANP or proANP (10^−7M). […] Data are mean±SEM.
as §1

[6] = test system: human cardiac fibroblasts (CFs); test: cGMP production in human cardiac fibroblasts; format: cell-based; details: 10^−7 M
Excerpt: as §2, §1
Further studies utilized human CFs in which GC-A and proANP convertase corin exist (FIG. 5C).

[7] = Processing and degradation of His-tagged proANP in human serum ex vivo
Description: Exogenous proANP was incubated in human serum at 37° C. Processed and unprocessed proANP peptides were isolated by immunoprecipitation using His-tag beads, followed by detection via Western blotting with 6×His antibody. […] FIG. 4C is a graph plotting densitometric analysis of processed ANP1-28 from proANP that was incubated in serum from normal subjects and HF patients for the indicated times. Values are mean±SEM. *p<0.05 vs. 0 min.

[8] = 667 pmol/kg intravenous, comparison of the three NPs
[9] = normal canines, 667 pmol/kg intravenous

- AUC [1]: 0.2 nM·h
- Tmax [1]: 2 min
Molecule: CC[C@H](C)[C@@H]1NC(=O)[C@H](CCCNC(=N)N)NC(=O)[C@H](CC(=O)O)NC(=O)[C@H](CCSC)NC(=O)[C@H](CCCNC(=N)N)NC(=O)CNC(=O)CNC(=O)[C@H](Cc2ccccc2)NC(=O)[C@@H](NC(=O)[C@H](CO)NC(=O)[C@H](CO)NC(=O)[C@H](CCCNC(=N)N)NC(=O)[C@H](CCCNC(=N)N)NC(=O)[C@H](CC(C)C)NC(=O)[C@@H](N)CO)CSSC[C@@H](C(=O)N[C@@H](CC(N)=O)C(=O)N[C@@H](CO)C(=O)N[C@@H](Cc2ccccc2)C(=O)N[C@@H](CCCNC(=N)N)C(=O)N[C@@H](Cc2ccc(O)cc2)C(=O)O)NC(=O)CNC(=O)[C@H](CC(C)C)NC(=O)CNC(=O)[C@H](CO)NC(=O)[C@H](CCC(N)=O)NC(=O)[C@H](C)NC(=O)CNC1=O [ANP, atrial natriuretic peptide]

Molecule: CC[C@H](C)[C@@H]1NC(=O)[C@H](CCCNC(=N)N)NC(=O)[C@H](CC(=O)O)NC(=O)[C@H](CCSC)NC(=O)[C@H](CCCCN)NC(=O)[C@H](CCCNC(=N)N)NC(=O)CNC(=O)[C@H](Cc2ccccc2)NC(=O)[C@@H](NC(=O)CNC(=O)[C@H](CO)NC(=O)CNC(=O)[C@H](CCC(N)=O)NC(=O)[C@@H](NC(=O)[C@H](CCSC)NC(=O)[C@H](CCCCN)NC(=O)[C@@H]2CCCN2C(=O)[C@@H](N)CO)C(C)C)CSSC[C@@H](C(=O)N[C@@H](CCCCN)C(=O)N[C@H](C(=O)N[C@@H](CC(C)C)C(=O)N[C@@H](CCCNC(=N)N)C(=O)N[C@@H](CCCNC(=N)N)C(=O)N[C@@H](Cc2c[nH]cn2)C(=O)O)C(C)C)NC(=O)CNC(=O)[C@H](CC(C)C)NC(=O)CNC(=O)[C@H](CO)NC(=O)[C@H](CO)NC(=O)[C@H](CO)NC(=O)[C@H](CO)NC1=O [BNP, B-type natriuretic peptide, reference compound]
- PcGMP AUC [2]: 13406.9 pmol·min/mL
- PcGMP Cmax [2]: 255.4 pmol/mL
- UcGMP AUC [2]: 207454 pmol·min/mL
- UcGMP Cmax [2]: 6936.2 pmol/mL
- effect on blood pressure (BP) [3, 8]: greatest effect
- AUC ([4]; dog, plasma, iv, 667 pmol/kg): 0.0517 nM·h
- Cmax ([4]; dog, plasma, iv, 667 pmol/kg): 0.43 nM
- Tmax ([4]; dog, plasma, iv, 667 pmol/kg): 2 min
- half-life ([4]; dog, plasma, iv, 667 pmol/kg): 3.7 min
- decline of plasma immunoreactivity after the peak [4, 9]: decreased rapidly

- cGMP production by proANP treated in serum for 180 minutes ([5]; proANP 10^−8 M, treated in serum 180 minutes): decreased
B1: proANP (protein, listed as Homo sapiens)
chain: NPMYNAVSNADLMDFKNLLDHLEEKMPLEDEVVPPQVLSEPNEEAGAALSPLPEVPPWTGEVSPAQRDGGALGRGPWDSSDRSALLKSKLRALLTAPRSLRRSSCFGGRMDRIGAQSGLGCNSFRY
modifications: His tag in serum
notes: 126 amino acid pro form of atrial natriuretic peptide
- AUC for plasma cGMP (PcGMP) relative to ANP or BNP ([2]; 667 pmol/kg intravenous): less than that for ANP or BNP
- AUC for urinary cGMP excretion (UcGMP) relative to ANP or BNP ([2]; 667 pmol/kg intravenous): twice that of ANP or BNP
- PcGMP AUC [2]: 6110.5 pmol·min/mL
- PcGMP Cmax [2]: 93.8 pmol/mL
- UcGMP AUC [2]: 420368 pmol·min/mL
- UcGMP Cmax [2]: 7027.8 pmol/mL
- effect on cardiac output ([3]; 667 pmol/kg intravenous): less than that of either ANP or BNP
- effect on renal blood flow ([3]; 667 pmol/kg intravenous): less effect on renal blood flow
- diuretic and natriuretic actions (urine volume, urinary sodium excretion) [3, 8]: strongest and longest
- effect on blood pressure (BP) [3, 8]: less of an effect on BP as compared to the other two NPs
- effect on heart rate ([3]; first 90 minutes, then increased by about 120 minutes): less than that of ANP or BNP
- cGMP production ([5]; HEK293 cells overexpressing GC-A): lower than ANP but much higher than proBNP
- cGMP production by proANP treated in serum for 5 minutes ([5]; proANP 10^−8 M, treated in serum 5 minutes, versus untreated proANP): stimulated cGMP production significantly as compared to untreated proANP
- cGMP production relative to ANP ([6]; after 60 minutes): about equal
- cGMP levels compared to 0 minutes ([6]; all time points): significant increases in cGMP levels
- cGMP production relative to ANP ([6]; first 30 minutes): about half as much as ANP
- processing of proANP in normal human serum ([7]; His-tagged proANP, 37° C., 5 minute incubation, normal serum): processed into ANP1-28
- proANP processing into ANP1-28 in HF serum compared to normals ([7]; serum from HF patients): preserved
- NPi AUC ([4]; NP immunoreactivity, normal canines, equimolar intravenous bolus 667 pmol/kg): 28.1 pmol·min/mL
- AUC for NP immunoreactivity relative to ANP [4, 9]: twice that of ANP
- decline of plasma immunoreactivity after the peak [4, 9]: decreased more slowly than ANP or BNP
- time of peak plasma immunoreactivity after injection [4, 9]: 2 min
- half-life ([4]; normal canines, equimolar intravenous bolus 667 pmol/kg): 20.7 min
- half-life relative to ANP ([4]; normal canines, pharmacokinetic analysis): about 4 times
- Cmax ([4]; read-out: NPi Cmax, NP immunoreactivity, normal canines, equimolar intravenous bolus 667 pmol/kg): 0.96 nM
